Residue numbers refer to the chain shown, from its start.
B1: anti-C2 antibody 149.46 (antibody, IgG4, V domains shown)
VH: QVQLQQSGPGLVKPSQPLSLTCAISGDSVSSNSATWSWIRQSPSRGLEWLGRTYYRSKWYHDYAVFVKSRMTINPDTSKNQFSLQLNSVTPEDTAVYYCARGGMPASDIPHFDNWGQGILVTVSS
VL: SYELTQPPSLSVSPGQTASITCSGHKLGDKYACWYQQKPGQSPVLVIYQDNKRPSGIPERFSGSNSGNTATLTISGTQALDEADYYCQAWDSITYVFGTGTKVTVL
notes: Recombinant
B2: 3.2 H2-10 (a representative pH dependent 3.2 comprising a histidine mutation in the heavy chain CDR2) (antibody, V domains shown)
VH: EVQLLESGGGLVQPGGSLRLSCAASGFTFRHYAMSWVRQAPGKGLEWVSLISGSGASTHYADSVKGRFTISRDNSENMLYLQMNSLRAEDTAVYYCAKDSLAVAGSEYFQHWGQGTLVTVSS
VL: SYVLTQAPSVSVAPGQTARITCGGNYFGGKSVHWYQQRPGQAPVLVVYDDSDRPSGIPERFSGSKSGNTATLAISRVEAGDEAAYYCQVYDTSSDHWVFGGGTKLTVL

Columns and labels:
[1] = biological target: T1, recombinant human complement C2 (NP_000054.2), C-terminal 6His-tag, made in house (CHO cell expression) (human, UniProt P06681 21-752); assay: ELISA
T1 construct: a linker before the tag is not described; also called human C2; Human C2
T1 sequence: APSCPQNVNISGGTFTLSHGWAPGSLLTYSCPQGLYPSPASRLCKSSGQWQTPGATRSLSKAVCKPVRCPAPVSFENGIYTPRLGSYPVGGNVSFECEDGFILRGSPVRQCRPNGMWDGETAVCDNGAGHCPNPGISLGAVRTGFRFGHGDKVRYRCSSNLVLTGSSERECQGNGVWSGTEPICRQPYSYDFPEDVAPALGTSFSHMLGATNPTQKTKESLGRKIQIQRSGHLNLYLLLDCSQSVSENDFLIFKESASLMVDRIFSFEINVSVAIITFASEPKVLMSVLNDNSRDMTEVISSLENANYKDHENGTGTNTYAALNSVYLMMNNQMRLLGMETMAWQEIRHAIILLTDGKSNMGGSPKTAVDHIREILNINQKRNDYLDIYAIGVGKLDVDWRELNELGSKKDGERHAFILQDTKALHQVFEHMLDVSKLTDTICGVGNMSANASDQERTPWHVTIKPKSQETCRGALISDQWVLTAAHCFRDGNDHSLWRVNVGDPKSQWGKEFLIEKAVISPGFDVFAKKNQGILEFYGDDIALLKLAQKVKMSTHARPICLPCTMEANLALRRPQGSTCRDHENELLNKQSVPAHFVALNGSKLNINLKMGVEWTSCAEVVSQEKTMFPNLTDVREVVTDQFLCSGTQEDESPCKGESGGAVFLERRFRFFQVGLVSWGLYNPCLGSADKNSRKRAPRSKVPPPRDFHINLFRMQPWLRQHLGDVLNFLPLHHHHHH

[2] = biological target: T2, recombinant human C2a, C-terminal 6His-tag, made in house (CHO cell expression) (human, UniProt P06681 244-752); assay: ELISA
T2 sequence: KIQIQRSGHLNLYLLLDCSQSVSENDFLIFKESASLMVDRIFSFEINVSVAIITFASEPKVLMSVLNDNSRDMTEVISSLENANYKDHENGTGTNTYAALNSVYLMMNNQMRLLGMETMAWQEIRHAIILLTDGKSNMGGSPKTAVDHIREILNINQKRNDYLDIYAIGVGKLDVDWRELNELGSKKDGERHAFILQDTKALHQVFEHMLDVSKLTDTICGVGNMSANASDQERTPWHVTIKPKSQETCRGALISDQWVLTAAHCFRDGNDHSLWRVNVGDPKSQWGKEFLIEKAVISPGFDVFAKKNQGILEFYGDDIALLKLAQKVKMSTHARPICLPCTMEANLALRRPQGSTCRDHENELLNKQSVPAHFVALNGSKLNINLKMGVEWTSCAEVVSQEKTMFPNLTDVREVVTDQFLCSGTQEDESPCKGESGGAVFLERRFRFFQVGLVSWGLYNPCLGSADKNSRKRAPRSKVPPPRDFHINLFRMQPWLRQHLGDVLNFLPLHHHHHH

[3] = biological target: T3, recombinant cyno C2a, C-terminal 6His-tag, made in house (CHO cell expression) (cynomolgus monkey, UniProt P06681 244-752 (human entry)); assay: ELISA
T3 chain: T2 sequence with C18S, D68V, M73I, N84K, R112Q, E117K, H148Q

[4] = biological target: T4, recombinant cynomolgus (cyno) complement C2 (XP_005553508.1), C-terminal 6His-tag, made in house (CHO cell … (cynomolgus monkey (Macaca fascicularis), UniProt P06681 21-752 (human entry))); assay: ELISA on cyno C2, OD450nm against log Ab conc. (nmol/L)
T4 construct: also called cyno C2; Cyno C2
T4 chain: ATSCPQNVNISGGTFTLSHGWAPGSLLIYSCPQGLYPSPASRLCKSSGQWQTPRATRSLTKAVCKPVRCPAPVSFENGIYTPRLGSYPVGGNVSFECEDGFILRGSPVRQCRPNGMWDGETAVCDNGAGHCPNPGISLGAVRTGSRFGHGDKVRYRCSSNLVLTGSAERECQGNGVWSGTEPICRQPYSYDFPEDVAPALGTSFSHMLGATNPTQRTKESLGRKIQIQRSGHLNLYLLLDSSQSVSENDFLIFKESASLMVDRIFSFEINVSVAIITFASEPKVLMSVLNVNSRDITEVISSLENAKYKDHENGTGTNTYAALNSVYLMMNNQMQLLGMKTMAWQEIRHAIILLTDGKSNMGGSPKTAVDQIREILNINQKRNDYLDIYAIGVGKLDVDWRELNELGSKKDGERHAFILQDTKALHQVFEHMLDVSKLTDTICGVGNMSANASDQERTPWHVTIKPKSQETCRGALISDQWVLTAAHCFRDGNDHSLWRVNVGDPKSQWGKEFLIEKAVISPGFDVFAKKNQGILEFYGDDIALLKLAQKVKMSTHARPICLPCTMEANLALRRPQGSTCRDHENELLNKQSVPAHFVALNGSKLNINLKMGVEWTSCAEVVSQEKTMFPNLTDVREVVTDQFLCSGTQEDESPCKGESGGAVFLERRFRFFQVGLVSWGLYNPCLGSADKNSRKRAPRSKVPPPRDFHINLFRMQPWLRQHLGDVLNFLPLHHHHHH

[5] = biological target: T4, recombinant cynomolgus (cyno) …; assay: binding kinetics (BLI presumed)
[6] = biological target: T1, recombinant human complement C2 …; assay: binding kinetics, neutral pH (BLI presumed)
[7] = biological target: T1, recombinant human complement C2 …; assay: BLI (Gator); ratio of dissociation at pH 5.8 to pH 7.4
Method: (§1) The histidine mutant constructs in Table 4 were tested for their pH-dependent dissociation from human C2. Probe-immobilized anti-C2 antibodies were incubated with C2 at pH 7.4 for 600s, followed by a 600s dissociation period in K Buffer at pH 7.4 or pH 5.8. The data were processed and analyzed by the Gator evaluation software.
(§2) Non-fusion mAb were used for comparison.

[8] = biological target: T4, recombinant cynomolgus (cyno) …; assay: as above
Method: as §1, §2

[9] = biological target: T1, recombinant human complement C2 …; assay: BLI (Gator), antibody on probe; 600 s association at pH 7.4, 600 s dissociation at pH 5.8
Method: as §1, §2

[10] = biological target: T4, recombinant cynomolgus (cyno) …; assay: as above
Method: as §1, §2

[11] = biological target: T1, recombinant human complement C2 …; assay: BLI (Gator), antibody on probe; 600 s association at pH 7.4, 600 s dissociation at pH 7.4
Method: as §1, §2

[12] = biological target: T4, recombinant cynomolgus (cyno) …; assay: as above
Method: as §1, §2

Row | Binder | EC50 [1] | EC50 [2] | EC50 [3] | binding result [4] | Kd [5] | koff [5] | kon [5] | Kd [6] | koff [6] | kon [6] | Fold dissociation pH 5.8/pH 7.4 [7] | Fold dissociation pH 5.8/pH 7.4 [8] | Dissociation (%) pH 5.8 [9] | Dissociation (%) pH 5.8 [10] | Dissociation (%) pH 7.4 [11] | Dissociation (%) pH 7.4 [12]
1 | B1 | 0.165 nM | 0.0457 nM | 0.042 nM | binds | – | – | – | – | – | – | – | – | – | – | – | –
2 | B2 | – | – | – | – | 0.222 nM | 9.84e-05 s⁻¹ | 442000 M⁻¹ s⁻¹ | 0.172 nM | 6.05e-05 s⁻¹ | 353000 M⁻¹ s⁻¹ | 8.2 fold | 7.53 fold | 56.7% | 62.9% | 6.91% | 8.35%
